The values below come from paper PMC6250708, “Arabidopsis thaliana DGAT3 is a [2Fe-2S] protein involved in TAG biosynthesis” (Scientific Reports, 2018).

The series deals with the molecule itself. The series can be described thus: SEC; Superdex 200 10/300 GL, 4 °C, 100 mM triethanolamine pH 7.5, 300 mM NaCl, 5% glycerol, 1% n-octyl-β-D-glucopyranoside, 1 mM TCEP; column calibrated with Bio-Rad gel filtration standard; oligomer size assumes a globular protein.

B1: Δ46AtDGAT3 (Arabidopsis thaliana acyl-CoA:diacylglycerol acyltransferase 3 lacking the putative chloroplast transit peptide) (domain or fragment, UniProt Q9C5W0 47-360, looked up)
chain: CNNEFADKGHVNYYIEPTRCGEEKEKVKVMEKEKKALKKKAKVLKSLSKNLDMFSSIGFGLDPEAGLVGEIQTKTISEATEILVKQLEQLKAEEKILKKQRKEEKAKAKAMKKMTEMDSESSSSSESSDSDCDKGKVVDMSSLRNKAKPVLEPLQPEATVATLPRIQEDAISCKNTSEALQIALQTSTIFPSMANPGQTLKTVEAVSVVGLPLNRVEVCMGGKCKRSGGALLLDEFQRAMTGFEGSAVACKCMGKCRDGPNVRVVKETDAVMTDSVRTPSKTLCVGVGLQDVETIVTSFFDEECSREGLGSVSY
notes: AtDGAT3 (At1g48300), Arabidopsis thaliana, 360-residue protein of the revised TAIR annotation (GenBank AEE32272); the 46 N-terminal residues (putative chloroplast transit peptide predicted by ChloroP 1.1) removed; calculated mass of the His-tagged protein 35.4 kDa; Cloned NdeI/XhoI into pET-32b(+), in frame with a C-terminal 6xHis tag; the NdeI site of the forward primer supplies a start …
On to B1, for which the “stoichiometry N” value is 3.
